Test results: publication PMC3333781, “Systematic mapping of two component response regulators to gene targets in a model sulfate reducing bacterium”

Columns and labels:
Test in all cases: EMSA; 10 mM Tris-HCl pH 7.5, 1 mM DTT, 50 mM KCl, 5 mM MgCl2, 25% glycerol, 1 ug/ml poly dI-dC, 50-100 fmol biotinylated DNA, 25-30 C, 20 min
Settings in all cases: protein: recombinant; tags: C-terminal V5-6xHis; chain copies: 2; label: 5'-biotin top strand
[1] = target: T1, DVU2588 response regulator (Desulfovibrio vulgaris Hildenborough, UniProt Q728L5 1-226)
T1 sequence: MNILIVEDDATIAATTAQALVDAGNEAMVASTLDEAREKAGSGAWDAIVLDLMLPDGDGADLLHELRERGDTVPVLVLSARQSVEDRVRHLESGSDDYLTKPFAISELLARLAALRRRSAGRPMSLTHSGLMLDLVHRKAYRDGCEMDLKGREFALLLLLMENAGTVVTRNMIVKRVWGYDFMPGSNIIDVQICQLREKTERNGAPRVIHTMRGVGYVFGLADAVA

[2] = target: T2, DVU2934 response regulator (Desulfovibrio vulgaris Hildenborough, UniProt Q727C1 1-472)
T2 sequence: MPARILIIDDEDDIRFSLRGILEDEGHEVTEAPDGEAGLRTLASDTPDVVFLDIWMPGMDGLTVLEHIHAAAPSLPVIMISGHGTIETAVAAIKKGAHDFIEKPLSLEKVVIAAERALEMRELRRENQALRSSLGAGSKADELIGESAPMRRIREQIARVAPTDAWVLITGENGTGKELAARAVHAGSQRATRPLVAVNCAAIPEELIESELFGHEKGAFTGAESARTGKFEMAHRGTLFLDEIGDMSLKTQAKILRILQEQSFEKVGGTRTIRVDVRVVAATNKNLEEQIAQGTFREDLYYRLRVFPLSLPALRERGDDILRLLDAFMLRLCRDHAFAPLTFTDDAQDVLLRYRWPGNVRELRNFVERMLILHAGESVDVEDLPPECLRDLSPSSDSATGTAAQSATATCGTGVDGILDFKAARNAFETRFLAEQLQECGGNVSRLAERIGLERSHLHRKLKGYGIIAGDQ

[3] = target: T3, DVU0679 response regulator (Desulfovibrio vulgaris Hildenborough, UniProt Q72E99 1-488)
T3 sequence: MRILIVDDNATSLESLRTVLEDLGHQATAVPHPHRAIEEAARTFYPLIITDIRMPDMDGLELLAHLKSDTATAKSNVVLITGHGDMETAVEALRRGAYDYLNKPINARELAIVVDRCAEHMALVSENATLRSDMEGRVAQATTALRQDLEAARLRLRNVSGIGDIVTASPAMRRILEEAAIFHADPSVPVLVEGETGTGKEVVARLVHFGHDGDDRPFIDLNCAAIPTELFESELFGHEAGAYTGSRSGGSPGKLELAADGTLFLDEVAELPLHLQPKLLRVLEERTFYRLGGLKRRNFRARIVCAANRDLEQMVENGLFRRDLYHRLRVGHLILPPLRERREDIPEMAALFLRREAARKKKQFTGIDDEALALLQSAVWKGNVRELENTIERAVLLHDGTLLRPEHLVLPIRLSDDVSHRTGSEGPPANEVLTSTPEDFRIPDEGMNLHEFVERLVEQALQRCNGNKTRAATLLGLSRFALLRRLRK

[4] = target: T4, DVU3305 response regulator (Desulfovibrio vulgaris Hildenborough, UniProt Q725X0 1-451)
T4 sequence: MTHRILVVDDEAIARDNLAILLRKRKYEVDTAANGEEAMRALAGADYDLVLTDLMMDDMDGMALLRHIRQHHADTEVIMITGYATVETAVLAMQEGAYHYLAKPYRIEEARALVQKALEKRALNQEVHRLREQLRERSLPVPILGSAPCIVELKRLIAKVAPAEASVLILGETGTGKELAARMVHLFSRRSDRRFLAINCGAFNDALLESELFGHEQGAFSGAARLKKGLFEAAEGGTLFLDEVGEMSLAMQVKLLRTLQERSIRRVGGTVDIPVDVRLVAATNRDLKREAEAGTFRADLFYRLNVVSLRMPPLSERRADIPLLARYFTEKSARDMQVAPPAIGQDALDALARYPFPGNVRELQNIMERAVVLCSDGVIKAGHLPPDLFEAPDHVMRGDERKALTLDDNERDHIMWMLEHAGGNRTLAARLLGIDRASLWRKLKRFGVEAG

[5] = target: T5, DVU0946 response regulator (Desulfovibrio vulgaris Hildenborough, UniProt Q72DI3 1-476)
T5 sequence: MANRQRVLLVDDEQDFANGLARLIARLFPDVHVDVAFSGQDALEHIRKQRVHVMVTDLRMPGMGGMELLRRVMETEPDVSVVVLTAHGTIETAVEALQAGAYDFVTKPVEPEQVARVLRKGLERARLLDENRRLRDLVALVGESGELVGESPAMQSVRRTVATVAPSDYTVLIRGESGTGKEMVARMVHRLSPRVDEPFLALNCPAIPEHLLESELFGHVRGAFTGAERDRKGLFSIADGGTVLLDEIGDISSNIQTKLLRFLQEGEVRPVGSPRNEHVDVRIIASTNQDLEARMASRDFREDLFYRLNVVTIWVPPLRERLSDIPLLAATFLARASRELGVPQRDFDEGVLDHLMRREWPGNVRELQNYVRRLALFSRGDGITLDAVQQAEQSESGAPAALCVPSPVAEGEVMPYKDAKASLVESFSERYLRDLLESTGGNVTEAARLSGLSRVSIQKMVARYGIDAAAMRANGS

[6] = target: T6, DVU0539 response regulator (Desulfovibrio vulgaris Hildenborough, UniProt Q72EN8 1-467)
T6 sequence: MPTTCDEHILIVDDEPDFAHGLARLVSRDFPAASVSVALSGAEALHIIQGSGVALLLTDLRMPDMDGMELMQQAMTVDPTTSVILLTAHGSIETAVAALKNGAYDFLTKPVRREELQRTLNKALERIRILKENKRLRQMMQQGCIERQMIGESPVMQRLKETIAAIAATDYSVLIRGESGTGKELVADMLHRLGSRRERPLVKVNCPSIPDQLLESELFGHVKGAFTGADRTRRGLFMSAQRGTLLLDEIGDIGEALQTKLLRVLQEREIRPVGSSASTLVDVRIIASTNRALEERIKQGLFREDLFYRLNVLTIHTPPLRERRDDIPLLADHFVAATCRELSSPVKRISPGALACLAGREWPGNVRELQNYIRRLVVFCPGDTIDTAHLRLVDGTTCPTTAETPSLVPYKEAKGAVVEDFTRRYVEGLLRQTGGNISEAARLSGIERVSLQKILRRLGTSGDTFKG

[7] = target: T7, DVU1083 response regulator (PhoB) (Desulfovibrio vulgaris Hildenborough, UniProt Q72D47 1-229)
T7 sequence: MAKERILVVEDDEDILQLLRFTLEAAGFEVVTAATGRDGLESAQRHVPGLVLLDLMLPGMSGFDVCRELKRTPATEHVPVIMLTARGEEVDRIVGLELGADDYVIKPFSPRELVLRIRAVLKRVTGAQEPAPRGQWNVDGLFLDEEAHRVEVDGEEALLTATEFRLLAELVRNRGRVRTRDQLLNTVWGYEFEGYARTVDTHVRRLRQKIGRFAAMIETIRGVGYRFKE

[8] = target: T8, DVU3381 response regulator (Desulfovibrio vulgaris Hildenborough, UniProt Q725P3 1-459)
T8 sequence: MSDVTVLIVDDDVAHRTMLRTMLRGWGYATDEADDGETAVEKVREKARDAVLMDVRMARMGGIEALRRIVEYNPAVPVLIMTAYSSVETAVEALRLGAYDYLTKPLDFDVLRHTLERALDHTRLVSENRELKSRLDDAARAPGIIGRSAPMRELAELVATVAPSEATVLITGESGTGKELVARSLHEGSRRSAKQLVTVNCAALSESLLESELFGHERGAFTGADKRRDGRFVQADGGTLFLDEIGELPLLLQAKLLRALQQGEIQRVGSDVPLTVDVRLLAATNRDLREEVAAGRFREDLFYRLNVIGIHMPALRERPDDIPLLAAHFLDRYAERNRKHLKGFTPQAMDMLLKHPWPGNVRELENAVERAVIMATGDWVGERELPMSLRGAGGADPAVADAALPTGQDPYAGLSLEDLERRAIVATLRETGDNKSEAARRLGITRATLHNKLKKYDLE

[9] = target: T9, DVU3023 response regulator (Desulfovibrio vulgaris Hildenborough, UniProt Q726T3 1-474)
T9 sequence: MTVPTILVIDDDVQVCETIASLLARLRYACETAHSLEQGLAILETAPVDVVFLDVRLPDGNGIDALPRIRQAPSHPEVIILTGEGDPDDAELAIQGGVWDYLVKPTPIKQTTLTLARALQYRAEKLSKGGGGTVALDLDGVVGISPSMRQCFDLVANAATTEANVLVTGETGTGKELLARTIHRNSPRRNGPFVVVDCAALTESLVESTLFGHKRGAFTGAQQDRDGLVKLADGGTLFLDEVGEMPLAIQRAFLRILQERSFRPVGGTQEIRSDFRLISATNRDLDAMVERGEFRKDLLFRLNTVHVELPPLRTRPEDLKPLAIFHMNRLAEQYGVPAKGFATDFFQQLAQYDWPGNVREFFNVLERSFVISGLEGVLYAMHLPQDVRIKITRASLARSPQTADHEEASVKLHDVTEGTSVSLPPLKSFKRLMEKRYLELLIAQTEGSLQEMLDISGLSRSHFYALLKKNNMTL

B1: DVU0943 DVU2588-motif mut (dsDNA)
DNA 1: CGTCCTGCACCTAATCATTCTTAAGTTAAAAGCTGT
DNA 2: ACAGCTTTTAACTTAAGAATGATTAGGTGCAGGACG
binding result [1]: no binding

B2: DVU2917 motif mut (dsDNA)
DNA 1: CTCGCCATGTGGACTGCAGAAGAGAGACTGTGCGTGG
DNA 2: CCACGCACAGTCTCTCTTCTGCAGTCCACATGGCGAG
binding result [2]: no binding

B3: DVU0677 motif mut (dsDNA)
DNA 1: AATCGCACGCGGAGAGTATTCGGATGTGCTTTTCCG
DNA 2: CGGAAAAGCACATCCGAATACTCTCCGCGTGCGATT
binding result [3]: no binding

B4: DVU3303 motif mut (dsDNA)
DNA 1: AAAGCCTCGTCATGGGATATCGTACACGAGGCCAC
DNA 2: GTGGCCTCGTGTACGATATCCCATGACGAGGCTTT
binding result [4]: no binding

B5: DVU0943 second site mut (dsDNA)
DNA 1: AAAGGGCTCGACAACAGATGTTCCATGCAAA
DNA 2: TTTGCATGGAACATCTGTTGTCGAGCCCTTT
binding result [5]: no binding | binding result [6]: no binding

B6: DVU1083 motif mut (dsDNA)
DNA 1: GTTGTAAAATGACAAACGGTTCTAGACGCTCTTCCA
DNA 2: TGGAAGAGCGTCTAGAACCGTTTGTCATTTTACAAC
binding result [7]: no binding

B7: DVU3384 motif mut (dsDNA)
DNA 1: CACGAATGGAATGTATTTTTCTTGCACCCATACAC
DNA 2: GTGTATGGGTGCAAGAAAAATACATTCCATTCGTG
binding result [8]: no binding

B8: DVU3025 motif mut (dsDNA)
DNA 1: GCCACACGAACTGCGCTTTTCAATCAACGCTACCAC
DNA 2: GTGGTAGCGTTGATTGAAAAGCGCAGTTCGTGTGGC
binding result [9]: no binding
